The supplement of paper PMC7125110
± gives the standard error. Fewer inactive variants are shown than the library holds.

B1: glmS ribozyme (parent)
chain: AUAAAAGCGCCAGAACUACAGAAAUGUAGUUGACGAGGAGGAGGUUUAUCGAAUUUUCGGCGGAUGCCUCCAAA

How the values were obtained:
Details in all cases: with glucosamine-6-phosphate
glucosamine-6-phosphate [1] = variants of: B1; test: self-cleavage kobs at 40 uM GlcN6P; higher = faster cleavage; RNA array
Procedure, shortened: (§1)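 In situ transcription by E. coli RNA polymerase produced barcoded ribozyme variants on sequenced MiSeq chips, and a hybridised Cy3 probe tracked them at 37 °C. Glucosamine-6-phosphate was flowed in at 40 μM to 10 mM in HEPES/KCl/Mg(OAc)2 buffer. kcat and KM were taken from weighted Michaelis–Menten fits of kobs values from exponential decay fits.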

glucosamine-6-phosphate [2] = variants of: B1; test: self-cleavage kobs at 160 uM GlcN6P; higher = faster cleavage; RNA array
Procedure, shortened: as §1

glucosamine-6-phosphate [3] = variants of: B1; test: self-cleavage kobs at 640 uM GlcN6P; higher = faster cleavage; RNA array
Procedure, shortened: as §1

glucosamine-6-phosphate [4] = variants of: B1; test: self-cleavage kobs at 10000 uM GlcN6P; higher = faster cleavage; RNA array
Procedure, shortened: as §1

glucosamine-6-phosphate [5] = variants of: B1; test: self-cleavage kobs at 2500 uM GlcN6P; higher = faster cleavage; RNA array
Procedure, shortened: as §1

Row | Variant | self-cleavage kobs at 40 uM GlcN6P (glucosamine-6-phosphate [1]) [s⁻¹] | self-cleavage kobs at 160 uM GlcN6P (glucosamine-6-phosphate [2]) [s⁻¹] | self-cleavage kobs at 640 uM GlcN6P (glucosamine-6-phosphate [3]) [s⁻¹] | self-cleavage kobs at 10000 uM GlcN6P (glucosamine-6-phosphate [4]) [s⁻¹] | self-cleavage kobs at 2500 uM GlcN6P (glucosamine-6-phosphate [5]) [s⁻¹]
1 | C8U U47A | < 1e-05 | < 1e-05 | < 1e-05 | < 1e-05 | 
2 | U54G A64G C68A |  | 5.71e-05 ± 2.2e-05 | 6.86e-05 ± 1.5e-05 |  | 0.000107 ± 2.7e-05
3 | G7U G35A G59C |  | < 1e-05 |  |  | < 1e-05
4 | G9U C16U U57G C68U |  | < 1e-05 | < 1e-05 |  | 
5 | G9A C11A G35C A42G | < 1e-05 |  |  | < 1e-05 | 
6 | G13C C16G G38A |  | < 1e-05 |  |  | 
7 | C10U G51U |  | < 1e-05 | < 1e-05 | < 1e-05 | < 1e-05
8 | A14G A15G G66U | 0.0002 ± 4.3e-05 |  |  | 0.0089 ± 0.0018 | 0.00252 ± 0.0011
9 | U45G C58G G59A |  | < 1e-05 |  |  | < 1e-05
10 | A33U G63U |  | < 1e-05 | < 1e-05 | < 1e-05 | < 1e-05
11 | A14C A36U G38C A39G |  | < 1e-05 |  |  | < 1e-05
12 | U47G C50U G63C |  | < 1e-05 | < 1e-05 |  | 
13 | G41C C58G | < 1e-05 | < 1e-05 | < 1e-05 | < 1e-05 | 
14 | G9U G66A | < 1e-05 | < 1e-05 | < 1e-05 | < 1e-05 | 
15 | A6G C11A C50G C58U | 0.000139 ± 2.5e-05 |  |  |  | 
16 | A6U C10G A52G U56G |  | < 1e-05 |  |  | < 1e-05
17 | C8U U57C | < 1e-05 | < 1e-05 | < 1e-05 | < 1e-05 | < 1e-05
18 | A15U C50A A64U C71U |  | < 1e-05 |  |  | 
19 | C16G C34G G40C U55A C58U U69A | < 1e-05 |  |  | < 1e-05 | 
20 | A15C G32U G35U |  | < 1e-05 |  |  | < 1e-05
21 | G29C G37C G41C |  | < 1e-05 |  |  | < 1e-05
22 | G13A C34U |  | < 1e-05 | < 1e-05 |  | < 1e-05
23 | A12C A53U G62U | < 1e-05 |  |  | < 1e-05 | 
24 | C16U G51C |  | < 1e-05 | < 1e-05 |  | < 1e-05
25 | G43U A53C G62U |  | < 1e-05 |  |  | < 1e-05

Row | Variant | self-cleavage kobs at 40 uM GlcN6P (glucosamine-6-phosphate [1]) [s⁻¹] | self-cleavage kobs at 160 uM GlcN6P (glucosamine-6-phosphate [2]) [s⁻¹] | self-cleavage kobs at 640 uM GlcN6P (glucosamine-6-phosphate [3]) [s⁻¹] | self-cleavage kobs at 10000 uM GlcN6P (glucosamine-6-phosphate [4]) [s⁻¹] | self-cleavage kobs at 2500 uM GlcN6P (glucosamine-6-phosphate [5]) [s⁻¹]
26 | G7U G66A |  | < 1e-05 |  | < 1e-05 | 
27 | A15G A33U G40U C67G |  | < 1e-05 |  |  | < 1e-05
28 | U30G U31C A33U U45A U55A |  | < 1e-05 |  |  | 
29 | G44A C61U |  | < 1e-05 | < 1e-05 | < 1e-05 | < 1e-05
30 | A15G G21U A33G | < 1e-05 |  |  | < 1e-05 | 
31 | G7U U45A |  | < 1e-05 |  |  | < 1e-05
32 | C8U G37C | < 1e-05 | < 1e-05 | < 1e-05 | < 1e-05 | < 1e-05
33 | U55G U56A | 0.000287 ± 6.6e-05 |  | 0.00208 ± 0.00047 | 0.0131 ± 0.0051 | 0.00834 ± 0.0016
34 | U30C A42U U49A |  | < 1e-05 | < 1e-05 |  | < 1e-05
35 | C11A G29U G32U G44A | < 1e-05 |  |  |  | 
36 | G13U G62A | < 1e-05 |  |  | < 1e-05 | < 1e-05
37 | A12C C16G C70U |  | 0.000215 ± 8.1e-05 | 0.000259 ± 9.1e-05 |  | 0.00151 ± 0.00044
38 | G9U A12G U54G |  | < 1e-05 |  |  | 
39 | A12C G59U |  | < 1e-05 |  | < 1e-05 | < 1e-05
40 | A36C U54C |  | < 1e-05 |  | < 1e-05 | 
41 | A52C A53U G59A A64C | < 1e-05 |  | < 1e-05 |  | 
42 | G7U A12C U54A C58A C70G |  | < 1e-05 |  |  | < 1e-05
43 | G32A G37C |  | < 1e-05 | < 1e-05 | < 1e-05 | < 1e-05
44 | C34G G40C A48G U49G C71U |  | < 1e-05 | < 1e-05 | < 1e-05 | < 1e-05
45 | C16A C50G U55C G63C C70G |  | 0.000129 ± 4.7e-05 | 0.00119 ± 0.00038 |  | 
46 | G7U A12C | < 1e-05 | < 1e-05 | < 1e-05 | < 1e-05 | < 1e-05
47 | A12C A39U U46A C50G |  | < 1e-05 | < 1e-05 |  | < 1e-05
48 | C10G U56G C68A | < 1e-05 |  |  |  | 
49 | U54G C58G C67G |  | 0.000136 ± 3.4e-05 | 0.000215 ± 7.1e-05 |  | 8.44e-05 ± 3.2e-05
50 | C11G A15C G29U A64U C70U | < 1e-05 |  |  | < 1e-05 | 

Row | Variant | self-cleavage kobs at 40 uM GlcN6P (glucosamine-6-phosphate [1]) [s⁻¹] | self-cleavage kobs at 160 uM GlcN6P (glucosamine-6-phosphate [2]) [s⁻¹] | self-cleavage kobs at 640 uM GlcN6P (glucosamine-6-phosphate [3]) [s⁻¹] | self-cleavage kobs at 10000 uM GlcN6P (glucosamine-6-phosphate [4]) [s⁻¹] | self-cleavage kobs at 2500 uM GlcN6P (glucosamine-6-phosphate [5]) [s⁻¹]
51 | C34U U49G |  | < 1e-05 |  | < 1e-05 | < 1e-05
52 | G43C C71A | < 1e-05 | < 1e-05 | < 1e-05 |  | < 1e-05
53 | G35C A48G | < 1e-05 | < 1e-05 |  |  | < 1e-05
54 | A39G G43A A48U G51C |  | < 1e-05 | < 1e-05 |  | < 1e-05
55 | G13C A33C G41U U56C |  | < 1e-05 |  |  | < 1e-05
56 | C11U A14U A64C |  | < 1e-05 |  |  | 
57 | C34U G51C |  | < 1e-05 | < 1e-05 | < 1e-05 | < 1e-05
58 | A14C G37A G43A C58U C68G |  | < 1e-05 |  |  | 
59 | U46G A64U |  | < 1e-05 |  |  | 
60 | G13U G43U |  | < 1e-05 | < 1e-05 | < 1e-05 | 
61 | G13C A14G G32A |  | 0.000606 ± 0.00018 | 0.00264 ± 0.00054 |  | 0.00874 ± 0.0043
62 | G43C U47G | < 1e-05 |  | < 1e-05 | < 1e-05 | 
63 | U49C G63A A64C | < 1e-05 |  |  |  | 
64 | A42U G44C A52C |  | < 1e-05 | < 1e-05 |  | 
65 | C10U A36U U65G | < 1e-05 |  |  |  | 
66 | G40U G44U C58G |  | < 1e-05 |  |  | 
67 | C8A G9U G32A G51A |  | < 1e-05 |  |  | 
68 | C10A U31G A48G C67G | < 1e-05 |  |  | < 1e-05 | 
69 | G35U G44C U56C | < 1e-05 |  |  |  | 
70 | A6G G13U G29C C50G |  | 0.000248 ± 5.8e-05 | 0.00012 ± 4.1e-05 |  | 0.000163 ± 4.4e-05
71 | A12C G63C G66C |  | < 1e-05 | < 1e-05 |  | 
72 | G35A G40A U46C G60U |  | < 1e-05 |  |  | < 1e-05
73 | U49A A52U |  | < 1e-05 | < 1e-05 | < 1e-05 | < 1e-05
74 | G7U A52C C70U | < 1e-05 |  | < 1e-05 | < 1e-05 | < 1e-05
75 | G13C A52C G62U | < 1e-05 |  |  | < 1e-05 | 

Row | Variant | self-cleavage kobs at 40 uM GlcN6P (glucosamine-6-phosphate [1]) [s⁻¹] | self-cleavage kobs at 160 uM GlcN6P (glucosamine-6-phosphate [2]) [s⁻¹] | self-cleavage kobs at 640 uM GlcN6P (glucosamine-6-phosphate [3]) [s⁻¹] | self-cleavage kobs at 10000 uM GlcN6P (glucosamine-6-phosphate [4]) [s⁻¹] | self-cleavage kobs at 2500 uM GlcN6P (glucosamine-6-phosphate [5]) [s⁻¹]
76 | G7U G13U |  | < 1e-05 |  | < 1e-05 | < 1e-05
77 | G9U A36C G38C | < 1e-05 |  |  | < 1e-05 | 
78 | A33G A42C |  | < 1e-05 | < 1e-05 | < 1e-05 | < 1e-05
79 | A12C G38A G51A G59U C68U | < 1e-05 |  |  | < 1e-05 | 
80 | G66A U69A | 8.7e-05 ± 1.7e-05 | 0.000185 ± 3.8e-05 | 0.0005 ± 9.3e-05 | 0.00178 ± 0.00037 | 0.000595 ± 0.00011
81 | G9A C67U | < 1e-05 | < 1e-05 |  |  | < 1e-05
82 | A36C G43A U47C | < 1e-05 |  |  |  | 
83 | G9A U47G A48U | < 1e-05 |  |  |  | 
84 | A15U G60A C61A G66U | < 1e-05 |  |  |  | 
85 | A15G A33G |  | < 1e-05 | < 1e-05 | < 1e-05 | 
86 | G9U A12G G29A U56A |  | < 1e-05 | < 1e-05 |  | < 1e-05
87 | G7U G51U |  | < 1e-05 | < 1e-05 | < 1e-05 | < 1e-05
88 | G9U C58U |  | < 1e-05 | < 1e-05 |  | < 1e-05
89 | C11G G59A C68A | < 1e-05 |  |  | < 1e-05 | 
90 | C8U A39C G44A U56G U65A |  | < 1e-05 |  |  | 
91 | C10G G35C |  | < 1e-05 | < 1e-05 | < 1e-05 | 
92 | C10G G35U |  | < 1e-05 | < 1e-05 |  | < 1e-05
93 | C50U C61A |  | 9.85e-05 ± 4.8e-05 | 2.67e-05 ± 1.1e-05 |  | 3.11e-05 ± 1e-05
94 | A53C G63C |  | < 1e-05 |  | < 1e-05 | < 1e-05
95 | A6C G66U |  | < 1e-05 | < 1e-05 |  | < 1e-05
96 | A42C A64G C68U |  | < 1e-05 | < 1e-05 |  | < 1e-05
97 | C11G A64U U65A |  | < 1e-05 | < 1e-05 |  | < 1e-05
98 | A14C G40U G43C C50U |  | < 1e-05 |  |  | < 1e-05
99 | U30G C61G | < 1e-05 |  |  | < 1e-05 | 
